The results in this text go back to patent publication US10829799 (UNIVERSITY COURT OF THE UNIVERSITY OF DUNDEE, dated 2020).

Test [1] has as its target T1, endogenous UBA1 in HEK293 protein extract (human, UniProt P22314 2-1058, limits assumed).
T1 construct: In a cell lysate, identified by anti-UBA1 blot and molecular weight
T1 sequence (looked up): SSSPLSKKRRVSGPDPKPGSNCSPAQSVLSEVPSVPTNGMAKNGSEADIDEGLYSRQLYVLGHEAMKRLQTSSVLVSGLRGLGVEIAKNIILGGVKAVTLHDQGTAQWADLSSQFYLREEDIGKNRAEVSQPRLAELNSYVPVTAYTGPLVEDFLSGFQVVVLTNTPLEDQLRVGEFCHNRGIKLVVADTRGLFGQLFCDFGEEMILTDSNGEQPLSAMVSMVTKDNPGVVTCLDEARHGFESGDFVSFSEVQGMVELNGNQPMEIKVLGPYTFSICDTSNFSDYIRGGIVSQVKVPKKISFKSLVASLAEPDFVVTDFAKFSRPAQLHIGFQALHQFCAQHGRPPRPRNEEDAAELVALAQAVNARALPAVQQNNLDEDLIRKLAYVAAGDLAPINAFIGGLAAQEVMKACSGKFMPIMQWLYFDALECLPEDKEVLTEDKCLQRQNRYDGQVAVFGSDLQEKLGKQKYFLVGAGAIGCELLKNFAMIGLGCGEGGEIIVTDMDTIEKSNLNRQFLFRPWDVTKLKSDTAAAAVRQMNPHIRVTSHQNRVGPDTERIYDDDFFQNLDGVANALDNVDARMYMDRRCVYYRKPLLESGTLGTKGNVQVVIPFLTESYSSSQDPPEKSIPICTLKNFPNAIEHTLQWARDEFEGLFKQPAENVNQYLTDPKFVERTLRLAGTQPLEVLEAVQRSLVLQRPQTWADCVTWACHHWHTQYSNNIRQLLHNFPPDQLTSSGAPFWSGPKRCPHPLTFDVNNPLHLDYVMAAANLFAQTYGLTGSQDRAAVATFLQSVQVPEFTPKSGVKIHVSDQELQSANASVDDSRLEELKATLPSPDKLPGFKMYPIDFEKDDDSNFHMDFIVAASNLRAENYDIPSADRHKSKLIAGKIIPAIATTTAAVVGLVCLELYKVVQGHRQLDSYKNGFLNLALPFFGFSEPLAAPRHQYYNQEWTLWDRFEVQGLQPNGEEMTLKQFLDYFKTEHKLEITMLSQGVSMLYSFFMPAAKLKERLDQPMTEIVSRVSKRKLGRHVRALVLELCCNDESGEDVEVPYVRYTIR
In words: probe (25 uM) in HEK293 extract (125 ug), 3 h at 30 C, western blot. As to the method: Labelling was quenched by the addition of 1 part 4×LDS loading buffer (Life Technologies) supplemented with 715 mM 2-mercaptoethanol (BME) to 3 parts probe-treated protein extract. Proteins were resolved by SDS-PAGE (10%) and transferred to nitrocellulose membrane (20 V for 40-60 min) by semi-dry transfer using a Novex Semi-dry device (Life Technologies). Membranes were blocked by incubation with 5% milk powder in phosphate buffered saline+0.1% Tween 20 (PBST) for 1 h. His-tagged species were probed with 1:10000 anti-His primary antibody (Clontech) in PBST+5% milk powder for 30 min at room temperature. Detection was carried out by incubation with 1:2500 anti-mouse-HRP conjugated antibody (Cell Signalling Technologies) in PBST+5% milk powder for 1 h at room temperature. ECL Prime substrate (GE Life Sciences) was used for visualization in accordance with the manufacturers protocol. Probing for UBA1 was carried out with anti-UBA1 primary antibody (Sigma E3152) and incubated for 1 h at room temperature. Detection was carried out by incubation with 1:15000 anti-mouse-HRP conjugated antibody (Cell Signalling Technologies) in PBST+5% milk powder for 1 h at room temperature.
We next tested whether E2 probes could label endogenous proteins in a complex proteome. We prepared additional thioacrylonitrile and thiomethyl acrylate probes built on UBE2D1, UBE2D2, UBE2D3 and UBE2H. […] UBE2H was chosen as it only has a single catalytic cysteine. Human embryonic kidney cell (HEK293) extracts (125 μg) were incubated with empirically determined probe concentrations (5-25 μM).

Test [2] has as its target T2, human Ub E1 activating enzyme UBA1 (recombinant, wild type) (human, UniProt P22314 1-1058).
T2 construct: Catalytic cysteine C632
T2 sequence (looked up): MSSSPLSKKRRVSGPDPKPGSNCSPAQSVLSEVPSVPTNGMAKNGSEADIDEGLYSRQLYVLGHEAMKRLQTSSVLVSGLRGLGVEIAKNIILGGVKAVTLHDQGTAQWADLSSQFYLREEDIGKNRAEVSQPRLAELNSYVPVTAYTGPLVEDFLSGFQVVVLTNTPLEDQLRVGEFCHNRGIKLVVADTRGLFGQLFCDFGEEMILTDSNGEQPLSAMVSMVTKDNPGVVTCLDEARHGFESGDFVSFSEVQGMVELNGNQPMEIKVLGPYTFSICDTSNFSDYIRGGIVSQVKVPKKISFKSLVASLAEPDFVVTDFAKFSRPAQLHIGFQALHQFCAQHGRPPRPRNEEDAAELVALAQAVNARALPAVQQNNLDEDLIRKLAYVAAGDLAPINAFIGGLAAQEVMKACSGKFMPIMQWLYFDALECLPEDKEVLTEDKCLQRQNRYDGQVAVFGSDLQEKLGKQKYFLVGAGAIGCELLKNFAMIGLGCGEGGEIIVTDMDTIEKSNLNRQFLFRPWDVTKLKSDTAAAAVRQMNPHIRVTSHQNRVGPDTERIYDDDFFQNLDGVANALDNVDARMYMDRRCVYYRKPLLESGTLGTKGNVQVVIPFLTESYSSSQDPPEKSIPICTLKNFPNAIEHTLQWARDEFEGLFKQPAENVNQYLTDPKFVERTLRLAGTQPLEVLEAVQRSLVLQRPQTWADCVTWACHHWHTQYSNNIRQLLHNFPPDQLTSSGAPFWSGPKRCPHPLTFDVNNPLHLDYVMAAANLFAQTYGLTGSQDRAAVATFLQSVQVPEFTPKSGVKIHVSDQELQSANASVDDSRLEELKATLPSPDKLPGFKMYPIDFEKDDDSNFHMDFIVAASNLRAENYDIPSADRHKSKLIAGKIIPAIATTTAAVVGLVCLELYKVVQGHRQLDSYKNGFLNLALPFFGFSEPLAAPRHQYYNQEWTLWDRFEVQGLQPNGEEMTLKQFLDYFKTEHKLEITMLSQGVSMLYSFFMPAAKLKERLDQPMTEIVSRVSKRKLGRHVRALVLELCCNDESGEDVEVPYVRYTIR
In words: covalent activity-based labelling, UBA1 3.5 uM with 4 eq. of probe, 30 C, reducing SDS-PAGE. As to the method: (§1) E2 probes (14 μM) were mixed with E1 enzyme (3.5 μM) and diluted 10× reaction buffer (500 mM Na_2HPO_4 pH 8) or 10×Ub-ATP buffer (500 mM Na_2HPO_4 pH 8, 20 μM ubiquitin, 20 mM ATP) to a final volume of 15-50 μL. Reactions were incubated at 30° C. and 15 μL aliquots were taken at 1 and 5 h time points which were quenched with 5 μL of reducing SDS-gel loading buffer (NuPAGE LDS loading buffer (4×), 715 mM 2-mercaptoethanol). The quenched reaction solutions were boiled for 5 minute at 100° C. and then 4 μL was analysed by SDS-PAGE (NuPAGE Bis-Tris, 4-12%).

In test [3] the target is T2, human Ub E1 activating enzyme UBA1 …. In words: covalent activity-based labelling of UBA1, reducing SDS-PAGE. As to the method: as §1
The target is the same in test [4]. Put plainly: covalent activity-based labelling, SDS-PAGE (FIG. 3B). As to the method:
as §1

Test [5] concerns the target T3, UBA7 (ISG15 E1; His-tagged human UBA7) (human, UniProt P41226 1-1012).
T3 construct: not shown: N-terminal 6xHis tag of the pFastBacHTB vector
T3 sequence (looked up): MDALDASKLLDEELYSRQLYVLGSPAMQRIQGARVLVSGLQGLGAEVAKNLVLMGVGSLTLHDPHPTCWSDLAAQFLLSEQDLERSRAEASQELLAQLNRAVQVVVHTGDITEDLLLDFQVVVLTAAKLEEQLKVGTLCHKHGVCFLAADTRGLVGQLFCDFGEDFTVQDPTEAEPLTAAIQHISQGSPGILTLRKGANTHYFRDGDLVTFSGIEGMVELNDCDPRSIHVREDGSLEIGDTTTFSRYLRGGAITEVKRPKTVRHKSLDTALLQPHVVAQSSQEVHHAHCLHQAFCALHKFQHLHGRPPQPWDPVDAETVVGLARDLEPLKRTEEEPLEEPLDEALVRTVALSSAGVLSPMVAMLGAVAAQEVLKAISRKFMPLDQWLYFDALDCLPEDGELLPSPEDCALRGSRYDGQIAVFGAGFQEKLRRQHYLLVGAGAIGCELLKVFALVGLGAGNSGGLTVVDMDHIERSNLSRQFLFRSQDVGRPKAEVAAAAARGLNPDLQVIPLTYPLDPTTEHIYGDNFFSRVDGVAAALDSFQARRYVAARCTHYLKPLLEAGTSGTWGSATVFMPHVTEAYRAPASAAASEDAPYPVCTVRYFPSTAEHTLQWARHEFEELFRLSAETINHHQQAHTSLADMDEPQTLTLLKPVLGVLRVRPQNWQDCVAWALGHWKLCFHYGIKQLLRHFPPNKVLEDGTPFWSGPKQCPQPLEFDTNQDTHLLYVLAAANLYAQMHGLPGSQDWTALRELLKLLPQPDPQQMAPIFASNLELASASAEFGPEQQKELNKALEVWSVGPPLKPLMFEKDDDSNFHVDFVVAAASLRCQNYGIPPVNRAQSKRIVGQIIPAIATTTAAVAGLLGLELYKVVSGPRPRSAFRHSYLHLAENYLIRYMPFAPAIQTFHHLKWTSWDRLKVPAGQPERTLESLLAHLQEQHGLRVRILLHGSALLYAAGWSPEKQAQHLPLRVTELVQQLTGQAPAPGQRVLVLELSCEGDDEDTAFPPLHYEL
In words: covalent activity-based labelling, SDS-PAGE (FIG. 3E). As to the method:
as §1

B1: UBE2N-=CN (His-tagged UBE2N labelled with (E)-3-tosylacrylonitrile 1; thioacrylonitrile probe) (enzyme)
chain: MGSSHHHHHHSSGLEVLFQGPGSAGLPRRIIKETQRLLAEPVPGIKAEPDESNARYFHVVIAGPQDSPFEGGTFKLELFLPEEYPMAAPKVRFMTKIYHPNVDKLGRICLDILKDKWSPALQIRTVLLSIQALLSAPNPDDPLANDVAEQWKTNEAQAIETARAWTRLYAMNNI
modifications: cysteine labelled with TDMA 1: thioacrylonitrile (activated vinylsulfide) warhead
notes: E2-based activity-based probe; forms a covalent bisthioether with the catalytic cysteine of the E1; also called Ubc13-=CN
Regarding B1, the binding result in test [1] and in test [2] was “binds” each time.

B2: UBE2N-VME (His-tagged UBE2N labelled with (E)-methyl 3-tosylacrylate 2; thiomethyl acrylate probe) (enzyme)
chain: MGSSHHHHHHSSGLEVLFQGPGSAGLPRRIIKETQRLLAEPVPGIKAEPDESNARYFHVVIAGPQDSPFEGGTFKLELFLPEEYPMAAPKVRFMTKIYHPNVDKLGRICLDILKDKWSPALQIRTVLLSIQALLSAPNPDDPLANDVAEQWKTNEAQAIETARAWTRLYAMNNI
modifications: cysteine labelled with TDMA 2: thiomethyl acrylate warhead
notes: also called Ubc13-VME
B2: the binding result in test [3] and in test [1] was “binds” each time.

B3: UBE2H thioacrylonitrile probe (enzyme)
chain: MGSSHHHHHHSSGLEVLFQGPGSMSSPSPGKRRMDTDVVKLIESKHEVTILGGLNEFVVKFYGPQGTPYEGGVWKVRVDLPDKYPFKSPSIGFMNKIFHPNIDEASGTVCLDVINQTWTALYDLTNIFESFLPQLLAYPNPIDPLNGDAAAMYLHRPEEYKQKIKEYIQKYATEEALKEQEEGTGDSSSESSMSDFSEDEAQDMEL
modifications: single catalytic cysteine labelled with TDMA 1 (thioacrylonitrile)
notes: also called UBE2H-=CN
B3: the binding result in test [1] is listed as “binds”.

B4: UBE2H thiomethyl acrylate probe (enzyme)
chain: MGSSHHHHHHSSGLEVLFQGPGSMSSPSPGKRRMDTDVVKLIESKHEVTILGGLNEFVVKFYGPQGTPYEGGVWKVRVDLPDKYPFKSPSIGFMNKIFHPNIDEASGTVCLDVINQTWTALYDLTNIFESFLPQLLAYPNPIDPLNGDAAAMYLHRPEEYKQKIKEYIQKYATEEALKEQEEGTGDSSSESSMSDFSEDEAQDMEL
modifications: single catalytic cysteine labelled with TDMA 2 (thiomethyl acrylate)
notes: also called UBE2H-VME
Consider B4, for which the binding result in test [1] was “binds”.

B5: UBE2L3**-=CN (enzyme)
chain: MGSSHHHHHHSSGLEVLFQGPGSMAASRRLMKELEEIRKSGMKNFRNIQVDEANLLTWQGLIVPDNPPYDKGAFRIEINFPAEYPFKPPKITFKTKIYHPNIDEKGQVCLPVIAAENWKPATKTDQVIQSLIALVNDPQPEHPLRADLAEEYSKDRKKFSKNAEEFTKKYGEKRPVD
modifications: catalytic cysteine labelled with TDMA 1: thioacrylonitrile warhead
notes: also called UBE2L3** thioacrylonitrile probe
For B5, the binding result in test [4] is on record as “binds”.

B6: UBE2L6*-=CN (enzyme)
chain: MGSSHHHHHHSSGLEVLFQGPGSMMASMRVVKELEDLQKKPPPYLRNLSSDDANVLVWHALLLPDQPPYHLKAFNLRISFPPEYPFKPPMIKFTTKIYHPNVDENGQICLPIISSENWKPSTKTSQVLEALNVLVNRPNIREPLRMDLADLLTQNPELFRKNAEEFTLRFGVDRPS
modifications: catalytic cysteine labelled with TDMA 1: thioacrylonitrile warhead
On to B6, for which the binding result in test [5] is reported as “binds”.

B7: UBE2L6**-=CN (enzyme)
chain: MGSSHHHHHHSSGLEVLFQGPGSMMASMRVVKELEDLQKKPPPYLRNLSSDDANVLVWHALLLPDQPPYHLKAFNLRISFPPEYPFKPPMIKFTTKIYHPNVDENGQICLPIIASENWKPSTKTSQVLEALNVLVNRPNIREPLRMDLADLLTQNPELFRKNAEEFTLRFGVDRPS
modifications: catalytic cysteine labelled with TDMA 1: thioacrylonitrile warhead
For the molecule B7, the binding result in test [5] is given as “binds”.
